From patent US11260115B1, “Peptides and combination of peptides for use in immunotherapy against CLL and other cancers” (immatics biotechnologies GmbH, priority 2015, dated 2022) come the findings set out here.

In this test the target is HLA-A*02:01 (Homo sapiens, UniProt P04439, D140Y/D185E/D98H/E176V/E277Q/G131W/G231S/I119V/I121R/I166T/I218V/L300P/L318F/N151K/N90K/P208A/P217A/Q86G/Q94H/R138H/R169H/T345S). Nature of the test: MHC binding assay (UV-ligand exchange, β2m ELISA, peptide exchange yield). The following applies: binding to HLA-A*02:01. An outline of the steps: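 Peptide-HLA-A*02:01 complexes formed by UV-mediated exchange of a photocleavable ligand; exchange yield measured by streptavidin-capture ELISA detecting β2m with HRP anti-β2m, TMB read at 450 nm. Refolded monomer standards 15-500 ng/ml; samples diluted 100-fold.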
(An ELISA detects its analyte on a solid surface through an enzyme-linked reagent.)
Take “336 (YMAVTTQEV; listed as Homo sapiens) [compound 336]”: the “Peptide Exchange (MHC class I binding score, peptide exchange yield)” value (“Peptide Exchange” below) was ““++++” (>75% = ++++)”. As for “303 (ILSQPTPSL; listed as Homo sapiens) [compound 303]”, the entry is ““+++” (>50 = +++)”. In the case of “89 (ILDFGTFQL; listed as Homo sapiens) [compound 89]” it was ““+++” (>50 = +++)”; in that of “218 (ALGEEWKGYVV; listed as Homo sapiens) [compound 218]”, ““++” (>20% = ++)”; in that of “383 (YLLREWVNL; listed as Homo sapiens) [compound 383]”, ““++++” (>75% = ++++)”.

In the case of “14 (ALLRLLPGL; listed as Homo sapiens) [compound 14]”, the “Peptide Exchange” value is listed as ““+++” (>50 = +++)”. In the case of “269 (TLTDEQFLV; listed as Homo sapiens) [compound 269]” it was ““++” (>20% = ++)”. Consider “305 (LLFPQIEGIKI; listed as Homo sapiens) [compound 305]”, for which the “Peptide Exchange” value was ““+++” (>50 = +++)”. For the substance “168 (YLLDQSFVM; listed as Homo sapiens) [compound 168]”, the “Peptide Exchange” value is reported as ““++++” (>75% = ++++)”. Consider “62 (GIIDGSPRL; listed as Homo sapiens) [compound 62]”, for which the “Peptide Exchange” value was ““+++” (>50 = +++)”. In the case of “21 (ALWAGLLTL; listed as Homo sapiens) [compound 21]” it was ““+++” (>50 = +++)”. As for “51 (FLVEAPHDWDL; listed as Homo sapiens) [compound 51]”, the entry is ““++++” (>75% = ++++)”; as for “271 (VIRNIVEAA; listed as Homo sapiens) [compound 271]”, ““++” (>20% = ++)”; as for “373 (TLLADQGEIRV; listed as Homo sapiens) [compound 373]”, ““++” (>20% = ++)”. As for “36 (FILTHVDQL; listed as Homo sapiens) [compound 36]”, the entry is ““++++” (>75% = ++++)”.

Take “9 (ALCDTLITV; listed as Homo sapiens) [compound 9]”: the “Peptide Exchange” value was ““+++” (>50 = +++)”. As for “142 (QLDEPAPQV; listed as Homo sapiens) [compound 142]”, the “Peptide Exchange” value is given as ““++” (>20% = ++)”.

With “106 (FMASHLDYL; listed as Homo sapiens) [compound 106]”, the “Peptide Exchange” value is on record as ““+++” (>50 = +++)”. In the case of “193 (YLDLSNNRL; listed as Homo sapiens) [compound 193]” it was ““+++” (>50 = +++)”; in that of “166 (TLDPNQVSL; listed as Homo sapiens) [compound 166]”, ““++” (>20% = ++)”; in that of “228 (FLGGLSPGV; listed as Homo sapiens) [compound 228]”, ““+++” (>50 = +++)”. Consider “231 (FLYIRQLAI; listed as Homo sapiens) [compound 231]”, for which the “Peptide Exchange” value is recorded as ““+++” (>50 = +++)”.

With “232 (FMHQIIDQV; listed as Homo sapiens) [compound 232]”, the “Peptide Exchange” value is reported as ““++++” (>75% = ++++)”. In the case of “338 (FLDMTNWNL; listed as Homo sapiens) [compound 338]” it was ““++++” (>75% = ++++)”; in that of “347 (YLGPVSPSL; listed as Homo sapiens) [compound 347]”, ““+++” (>50 = +++)”; in that of “148 (SIVASLITV; listed as Homo sapiens) [compound 148]”, ““+++” (>50 = +++)”. In the case of “324 (SLYSALQQA; listed as Homo sapiens) [compound 324]” it was ““+++” (>50 = +++)”. In the case of “15 (ALPEVSVEA; listed as Homo sapiens) [compound 15]” it was ““+++” (>50 = +++)”; in that of “47 (FLSDQPEPYL; listed as Homo sapiens) [compound 47]”, ““++” (>20% = ++)”; in that of “243 (ILPTLEKELFL; listed as Homo sapiens) [compound 243]”, ““+++” (>50 = +++)”. Turning to “170 (TLTFRVETV; listed as Homo sapiens) [compound 170]”, the “Peptide Exchange” value is on record as ““+++” (>50 = +++)”. As for “35 (FILPSSLYL; listed as Homo sapiens) [compound 35]”, the entry is ““+++” (>50 = +++)”; as for “24 (AMAGDVVYA; listed as Homo sapiens) [compound 24]”, ““+++” (>50 = +++)”; as for “12 (ALGEDEITL; listed as Homo sapiens) [compound 12]”, ““+++” (>50 = +++)”. In the case of “123 (LLLAEAELLTL; listed as Homo sapiens) [compound 123]” it was ““++” (>20% = ++)”; in that of “260 (SLDDVEGMSV; listed as Homo sapiens) [compound 260]”, ““+++” (>50 = +++)”. In the case of “164 (SVHKGFAFV; listed as Homo sapiens) [compound 164]” it was ““+++” (>50 = +++)”; in that of “50 (FLFEPVVKAFL; listed as Homo sapiens) [compound 50]”, ““+++” (>50 = +++)”. On to “378 (YILGKFFAL; listed as Homo sapiens) [compound 378]”, for which the “Peptide Exchange” value was ““+++” (>50 = +++)”. As for “364 (KMDWIFHTI; listed as Homo sapiens) [compound 364]”, the entry is ““+++” (>50 = +++)”; as for “38 (FIMEGGAMV; listed as Homo sapiens) [compound 38]”, ““+++” (>50 = +++)”; as for “72 (GLLDAGKMYV; listed as Homo sapiens) [compound 72]”, ““+++” (>50 = +++)”. As for “261 (SLVEAQGWLV; listed as Homo sapiens) [compound 261]”, the entry is ““+++” (>50 = +++)”; as for “137 (NLIKTVIKL; listed as Homo sapiens) [compound 137]”, ““+++” (>50 = +++)”. In the case of “344 (VLAFENPQV; listed as Homo sapiens) [compound 344]” it was ““+++” (>50 = +++)”; in that of “385 (YTIPLAIKL; listed as Homo sapiens) [compound 385]”, ““+++” (>50 = +++)”.
